In patent US20090305281, “NOVEL INHIBITORS OF RETROVIRAL REVERSE TRANSCRIPTACE” (THE CURATORS OF THE UNIVERSITY OF MISSOURI, published 2009) one finds IC50 data, which are given here for 22 molecules.

The target in data set [1] is T1, HIV-1 reverse transcriptase (HXB2, group M subtype B) (Human immunodeficiency virus 1, UniProt P04585 SEQ:1-560). Kind of data set: inhibition; DDDP, K+ buffer; p136 states not significantly different from L1. The conditions noted are these: tags: expressed in E. coli; hairpin + G4, T16 connector. As to the method:
(§1) Reactions were assembled in reaction buffer (50 mM Tris-HCl pH 8.3, 75 mM KCl, 5 mM MgCl2, 10 mM DTT) with 30 nM primer, 45 nM template and 0.2 mM dNTPs. After annealing primer and template strands, DNA aptamers were added. Reactions were initiated by adding RT to a final concentration of 3 nM active site. […] Additional reactions included 1 μM and 3 μM where indicated. After 10 min at 37° C., reactions were quenched by addition of 2 volumes (20 μl) of gel-loading buffer (95% formamide with 0.01% bromophenol blue). For reactions assessing monovalent ion dependence, 75 mM KCl was replaced with 75 mM NaCl where indicated.

Data set [2] deals with T1, HIV-1 reverse transcriptase (HXB2, …). The data set can be described thus: inhibition; DDDP, K+ buffer. The conditions noted are these: tags: expressed in E. coli. The procedure:
FIG. 13 Sequence plasticity of stems and loops. Inhibition of RT DDDP activity by aptamer variants. Aptamer concentrations (nM) are indicated above the lanes. (A) Aptamer TKQ4 retains inhibition even though it carries a G-to-A mutation in the fourth of the 12 G's that comprise the quadruplex. […] Similar titrations were carried out in triplicate for all aptamers for which IC50 values are reported. Aptamer R1T was included in subsequent panels to provide a consistent reference baseline of inhibition. (C) RT inhibition by aptamer SN, in which quadruplex loops are replaced with hexaethylene glycol. (D) and (E), RT inhibition by aptamers carrying mutations in helical stem domain, as detailed in text.
as §1

Data set [3] has the same target. Kind of data set: inhibition; DDDP, K+ buffer. The conditions noted are these: tags: expressed in E. coli. As to the method: as §1
This is another data set of the same source.

Where [4] appears, read: hairpin + G4, termini within quadruplex.

B1: L10 (ssDNA)
DNA: CGCCTGATTAGCGATACTCAGGCGTTTTTTTTTTTTTTTTGGGTGGGTGGGTGGG
Regarding B1, the 50% inhibitory concentration (IC50) in data set [1] is 120 nM.
For CGCCTGATTAGCGATACTCAGGCGTTGGGTTGGGTTGGGTTGGG (ssDNA) [R2T], the IC50 in data set [2] (hairpin + G4) came to 13 nM.
The same measure, in the same setting: next, CGGATTAGCGATACTCCGTTGGGTGGGTGGGTGGG (ssDNA) [S2]: 110 nM.

B2: R8T (ssDNA)
DNA: CGCCTGATTAGCGATACTCAGGCGTTGGGTTTTTTTTGGGTTTTTTTTGGGTTTTTTTTGGG
B2: the IC50 in data set [2] (hairpin + G4) was found to be 20 nM.
CGCCTGACCCTTCAGGCGTTGGGTGGGTGGGTGGG (ssDNA) [S4]: in data set [2] (hairpin (CCCT tetraloop) + G4), the IC50 worked out at 32 nM.
Take GGGTGGGTGGGTTCGCCTGATTAGCGATACTCAGGCGTTGGG (ssDNA) [Ecut]: in data set [3] (setting [4]), the concentration for half-maximal inhibition (IC50) is 99 nM.
In the case of GGGTTCGCCTGATTAGCGATACTCAGGCGTTGGGTGGGTGGG (ssDNA) [Bcut], the IC50 in data set [3] (setting [4]) is 48 nM.

B3: RT6-B (Vor) (ssDNA)
DNA: CGCCTGATTAGCGATACTCAGGCGTTAGGGAAGGGCGTCGAAAGCAGGGTGGG
For the molecule B3, in data set [3] (hairpin + G4), the 50% inhibitory concentration (IC50) was determined as 5.7 nM.
Take GGGTGGGTTCGCCTGATTAGCGATACTCAGGCGTTGGGTGGG (ssDNA) [Acut]: the IC50 in data set [3] (hairpin + G4, termini between 2nd and 3rd G triplets) came to 22 nM.
Consider CGCCTGATTAGCGATACTCAGGCGTTGGGTTTTGGGTTTTGGGTTTTGGG (ssDNA) [R4T], for which the concentration for half-maximal inhibition (IC50) in data set [2] (hairpin + G4) was approximately 35 nM.
On the same count and under the same terms, the figure for CGTGATTAGCGATACTCACGTTGGGTGGGTGGGTGGG (ssDNA) [S1] is 59 nM.
As to CGCCTGATTAGCGATACTCAGGCGTTTTTTTTGGGTGGGTGGGTGGG (ssDNA) [L4], the 50% inhibitory concentration (IC50) in data set [3] (hairpin + G4, T8 connector) was 28 nM.

B4: ZAM1 (ssDNA)
DNA: CGCCTGATTAGCGCGCGCCGCGTTTTCGCGGCGCGCGCTACTCAGGCGTTGGGTGGGTGGGTGGG
As for B4, in data set [2] (hairpin (22 bp) + G4), the half-maximal inhibitory concentration (IC50) turned out to be 10 nM.
Consider GGGTGGGTTGCGGACTCATAGCGATTAGTCCGCTTGGGTGGG (ssDNA) [Acutrev], for which the 50% inhibitory concentration (IC50) in data set [3] (setting [4]) came out at 33 nM.
Take CGCCTGATTAGCGATACTCAGGCGTTGGGCGGGCGGGCGGG (ssDNA) [R1C]: the concentration for half-maximal inhibition (IC50) in data set [2] (hairpin + G4) is 26 nM.
As to CGCCTGATTAGCGATACTCAGGCGTTGGGAGGGAGGGAGGG (ssDNA) [R1A], the IC50 in data set [2] (hairpin + G4) worked out at 18 nM.
In the case of CGCCTGATTAGCGATACTCAGGCGTTGGGTGGGTGGGTGGG (ssDNA) [R1T], in data set [3] (hairpin + G4), the half-maximal inhibitory concentration (IC50) turned out to be 14 nM.
For CGCCTGATTAGCGATACTCAGGCGAAGGGTGGGTGGGTGGG (ssDNA) [L6], in data set [3] (hairpin + G4, A2 connector), the 50% inhibitory concentration (IC50) turned out to be 13 nM.
In the case of CGCCTGATTAGCGATACTCAGGCGTTTTGGGTGGGTGGGTGGG (ssDNA) [L3], the 50% inhibitory concentration (IC50) in data set [3] (hairpin + G4, T4 connector) was 13 nM.

B5: RT6 (ssDNA)
DNA: ATCCGCCTGATTAGCGATACTCAGGCGTTAGGGAAGGGCGTCGAAAGCAGGGTGGGACTTGAGCAAAATCACCTGCAGGG
For the molecule B5, the IC50 in data set [3] (hairpin + G4) is 36 nM.
For the molecule CCGGACTCATAGCGATTAGTCCGGTTGGGTGGGTGGGTGGG (ssDNA) [Srevstem], the IC50 in data set [2] (hairpin + G4) worked out at 26 nM.

B6: RT6-A (ssDNA)
DNA: ATCCGCCTGATTAGCGATACTCAGGCGTTAGGGAAGGGTAGCGATACAGGGTGGG
Regarding B6, in data set [3] (hairpin + G4), the half-inhibitory concentration (IC50) was determined as 16 nM.

As a reminder, the IC50 is the concentration at which inhibition is half-maximal.
